In patent publication US20090305951A1 (published 2009):
One block for each binder: values may come before it.

Biological target: FGF-receptor on dissociated neurons from embryonic rat hippocampus (rat)
Experiment: cell-based or functional assay

- neurite outgrowth from hippocampal neurons, 50 µM peptide, relative to the entire FG loop peptide: ~50%
B1: truncated version of the FG loop peptide, heptamer Ala 77-Lys 83 (peptide)
peptide: AENQQGK

- neurite outgrowth from hippocampal neurons, 50 µM peptide, relative to the entire FG loop peptide: ~50%
B2: truncated version of the FG loop peptide, nonamer Val 76-Ser 84 (peptide)
peptide: VAENQQGKS
